Experiment: yeast display, Sf9 membrane polyspecificity reagent, FACS + sequencing; frameworks hold sequencing errors
Summary of the method: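 Galactose-induced (36–48 hours) yeast carrying a synthetic nanobody display library were exposed to 10% biotinylated, detergent-solubilized Sf9 membrane reagent at 4 °C for 1 hour. FACS followed streptavidin microbead enrichment, using low and high (top ~1%) gates for expression (anti-HA) and reagent binding (streptavidin). Colony PCR, MiSeq 2 × 250 sequencing and CDR-length filtering followed. Labels for polyreactivity reflect the gate of origin.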

Row | Sequence | polyreactivity (PSR sort gate)
1 | QVQLVESGGGLVQAGGSLRLSCAASGSTFVNAMGWYRQAPGKERELVAAISLSGDSTYYADSVKGRFTISRDNAKNTVYLQMNCLKPEDTAVYYCNADGLGGEDPEYLWYPVPDYDYWGQGTQVTVSS | low polyreactivity
2 | QVQLVESGGGLVQAGGSLRLSCAASGRIFVYNVMGRYRQAPGKERDLVAAISWGTGSTYADSVKGRFTISRDNAKNTVYLQMNSLKPEDTAVYYCAADSFIPPYDHWGLGTQVTVSS | low polyreactivity
3 | QVQLVESGGGLVQAGGSLRLSCAASGSTLRSYTMGWYRQAPGKERELVAAITTTGRTYYADSVKGRFTISRDNAKNTVYLQMNSLKPEDTAVYYCNAVAPGKYNHWGQGTQVTVSS | high polyreactivity
4 | QVQLVESGGGLVQAGGSLRLSCAASGRIFISNAMGWYRQAPGKERELVAAISWRGTRTYYADSVKGRFTISRENAKNTVYLEMNSLKPEVTAVYYCNADRHRSRGMDYWGQGTQVTVSS | high polyreactivity
5 | QDQLVESGGGLVQAGGSLRLSCAASGIIFRNYAMGWYRQAPGKERELVATIRYRGGRTYADSVKGRFTISRDNAKNTVYLQMNSLKPEDTAVYYCNARRLSDYGDYDYWGQGTQVTVSS | high polyreactivity
6 | LVQLVESGGGLVQAGGSLRLSFAASGLIFGRYAMGWYTQAPGKERELVAAISSSGVRTYYADSVKGRFTLSRDNAKNTVYLQLNSLKPEDTAVYYCAAAYWSSPEDTVIKRYYWGQGTQVTVSS | high polyreactivity
7 | QVQLVESGGGLVQAGGSLRLSCAASGSTFLINAMGWYRQAPRKERELVATISSGGSTYYADSVKGRFTISRDNAKNTVYLQMNSLKPEDTAVYSCAADPDRTAYDYWGQGTQVTVSS | low polyreactivity
8 | QLQLVESGGGLVQAGGSLRLSCAASGSTFSVYAMGWYRPAPGKERELVAAISSGGNTKYADSVKGRFTISRDNAKNTVYLQMNSLKPEDTAVYYCNADSQRPAYWDGYWGQGTQVTVSS | low polyreactivity
9 | QVQLVESGGGLVQAGGSLRLSCSASGSTFDGNAMVWYRQAPGKERELVAAITQRASNTYYADSVKGRFTISRDNAKNTVYLQMNSLKPEDTAVYYCNADFYVTSAEFYYWGQGSQVTVSS | low polyreactivity
10 | QVQLVESGGGLDQAGGSLRLSCAASGGIFSVYAMGWYRQAPGKEREFVAAISKSGGRTYYADSVKGRFTISRDTAKKTVYLQMNCLKQVDTAVYYCNADVYPYYRKPWMDYWGQGSQVTVSS | low polyreactivity
11 | QVQLVESGGGLVQAGGSLRLSCAASGRIIVLYAMGWYIQAPGKERELVASIRSGGSTNYADSVKGRFTISRDNAKNTVYLQMNSLKPEDTAVYYCAARIRSVVPFDMDYWGQGTQVTVSS | low polyreactivity
12 | QVQLVESGGGLVQAGGSLRLSCAASGSTFRWYGMGWYRQAPGKERELVAVITRGGSTYYADSVKGRFTISRDNAKNTVYLQMNSLKPEDTAVYYCARVRGPNNAFYLGSTYGYWGQGTQVTVSS | high polyreactivity
13 | QVQLVESGGGLVQSGGSLRLSCAASGSIFTWYTMGWYRQAPGKERELVAAISWSGGRTYYADSVKGRFTISRDNAKNTVYLQMNSLKPEDTAVYYCAASAYGRPPFDYWGQGTQVTVSS | high polyreactivity
14 | QVQLVETGGGLVQAGGSLRLSSAASGRTFAYYAMGWYRQAPGKERELVAAISSGGGSTYYADSVKGRFTISRDNAKNTVYLQMNSVKPEDTAVYYCNKGFNYCGWFKKYGYWGQGTQVTVSS | high polyreactivity
15 | QVQLVESGGGLVQAGGSLRLSCAASGSTFSYNAMGWYRQAPGKERELVATITTGGRTSYADSVKGRFTISRDNAKNTVYLQMNSLKPEDTAVYYCAAVGRFSSRPRVVYYGYDYWGQGTQVTVSS | low polyreactivity
16 | QVQLVESGGGLVQAGGSLRLSCAASGFIFSYYAMGWYRPAPGKEREFVAAISRRGGSTYYADSVKGRFTISRDNAKNTVYLQMNSLKPEDTAVFYCARRRTSTAVREHYYRDWYGYDFWGQGTQVTVSS | high polyreactivity
17 | QVQLVESGGGLVQAGGSLRLSCAASGRLFVYNAMGWYRQAPGKERELVASISWSGDSTYADSVKGRFTISRDNAKNTVYIQMNSLKPEDTAVYYCAAYSQADYQNMDYWGQGTQVTVSS | low polyreactivity
18 | QVQLVESGGGLVQAGGSLRLSCAASGFTFGRYAMGRYRPAPGKVRELVATITRTGSTNYADSVKGRFTISRDNAKNTVDLQMHSLKPEDTAVYYCNAVYSACRYVKYDYWGQGTQVTVSS | low polyreactivity
19 | QVQLVESGGALVQAGGSLRISCAASGRTLSAYAMGLYRQAPGKERELVAVISRSGGRTYYADSVKGRFTISRDNAKNTVYLQMNSLKQEDSAVYYCAAGSSRLRALYNYWGQGTQVNVSS | high polyreactivity
20 | QVQHVESGRGLVQAGCSLPLSCAASGFTFLAYAMGWYRQAPGKETELVAAISRSGGRTYYADSVKWRFTISRDNAKNTVYLQMNSLKPEDTAVYYCAKRVLTHPGDDYWGQGAQVTVSS | high polyreactivity
21 | QVQLVESGGGLVQAGGSLRLSCAASGRISNRYAMGWYRQAPGKERELVAAIRRSTTSTYADSVKGRFTISRDNEKNTFYLQMNSLKPEYTAVYYCAARGGRRGGYYSWGQGTQVTVSA | high polyreactivity
22 | QVQLVESGGGLVQAGGSLRLSCAASGSTFYRYMGWYRQAPGKERELVADISSSGDTYYADSVKGRFTISRDNAKNTVYLQMNSLKPEDTAVYYCAADVSVGYWWSYSMDYWGQGTQVTVSS | high polyreactivity

Row | Sequence | polyreactivity (PSR sort gate)
23 | QVQLVESRGGLVQAGGSLRLSCDASGFIFTLYAMGWYRQAPGKERELVASIRGSGGNTYYADSVKGRFTISRDNAKNTVYLQMNSLKPEDTAVYYCAARTYRRPYSSWGQGTQVTVSS | high polyreactivity
24 | QVQLVESGGGLVQAGGSLRLSCAASGSTLVRKAMGWYRQAPGKERELVAAISRSGGRTYYADSVKGRFTISRDNAKNTVYLQMNSLKPEDTAVYYCARLDGFSASDHDYWGQGTQVTVSS | high polyreactivity
25 | QVQLVESGGGLVQAGGSLRLSCAASGIIFDQNVMGWYRQAPGKERELVAAIRQTGGSTYYADSVKGRFTISRDNAKNTVYLQMNSLKPEDTAVYYCNAKPPGWFWGGFSYNRYYYWGQGTQVTVSS | low polyreactivity
26 | QVQLVESGGGLVQAGGSLSLSCAASGLTFVYYVMGWYRQAPGKERELVAAISSGGGTYYADSVKGRFTISRDNAKNTVYLQMNSLKPEDTAVYYCAADLLGWFDFDYWGQGTQVTVSS | high polyreactivity
27 | QVQLEESGGGLVQAGGSLRLSCAASGLTFPSNDMGCYRQAPGKERELVAASSKRGGRTYYADYVKGRFTISRDNAKNTVYLQMNSLKPEDTAVYYCATPYAFPGTVQYAGYNYWGQGTQVTVSS | high polyreactivity
28 | QDQIVETGGGLVQAGCSLRLSCAASGSIYYNSMGWYRTAHAKETELVASISTGDSTDYADSVKGRFTISRDYAKYTVYLQMNSLKPEDTAVYYCKAVASQHDEFDYWGQGTQVTVSS | low polyreactivity
29 | QVQLVESGGGLVQAGGSLRLSCAASGSLFPLYAMGWYRQAPGKERELVAAITWRGGSTYYADSVKGRFTISRDNAKNTVYLQMNSLKPEDTAVYYCNRDLVPRFDYWGQGTQVTVSS | low polyreactivity
30 | QVQLVESGGGLVQAGGSLRLSCAASGRTFRAYAMGWYRQAPGKERELVAAITGGGSTKYADSVKGRFTISRDNAKNTVYLQMNSLKPEETAVYYCAATGRSGVLSSYYYWGQGTQVTVSS | high polyreactivity
31 | HVQLVESGGGLVQAGGSLRISCAASGITFYAYAMGWYRQAPGKERELVAAITRRGGSTRYADSVKGRFTITRDNAKNTVYLQMNSLKPEDTAVYYCNARSGRYFLGYGYWGQGTQVTVSS | high polyreactivity
32 | QVQLVESGGGLVQAGGSLRLSCAASGITFIRYAMGWYRQAPGKERELVAVITRSGGRTYYADSVKGRFTISRDNAKNTVYLQMNSLKPEDTAVYYCAARAYGYDEYEYWGQGTQVTVSS | high polyreactivity
33 | QVQLVESGGGLVQAGGSLRLSCAASGSILFTNAMGWYRQAPGKERELVAAISSGGSTYFADSVKGRFTISRDNAKNTVYLQMNSLKQEDTAVYYCAADQLNVGREYVEYDYWGQGTQVTVSS | low polyreactivity
34 | QVQHVESGGGLVQAGGSLRLSCAASGYTFGYYAMGWYRQAPGKERELVASITERGGSTYYADSVKGRFTISRDNAKNTVYLQMNSLKPEDTAVYYCAADWDPSWWLFPTSSYDYWGQGTQVTVSS | low polyreactivity
35 | QVQLVESGGGLVQAGGSLRLSCAASGRIFRYYAMGWYRQAPGKERELVAVISSSGGSTNYADSVKGRFTISRDNAKNTVYLQMNSLKPEDTAVYYCNAYGAYGGTGDYWGQGTQVTVSS | high polyreactivity
36 | QVQLVESGGGLVQAGGSLRLSCAASGSTFDYNAMGWYRQAPGKERELVAAIRWSGDTTYYADSVKGRFTISRDNAKNTVYLQRNSLKPEDTAVYYCANVPIYRYGVWAMNYWGQGTQVTVSS | high polyreactivity
37 | QVQLVESGGGLVQAGGSLRLSCAASGFTFRIYAMGWYRQAPGKERELVAAISWSGGSTYYADSVKGRFTISRDNAKNTVYLQMNSLKPEDTAVYYCATDSHRSQRHYAYDGDYWGQGTQVTVSS | high polyreactivity
38 | QVQLVESGGGLVQAGGSLRLSCAASGSTIYYYALGWYRQAPGKERELVAAISWSGASTFYADSVKGRFTISRDNAKNTVDLKMNSLKPVDTAVYYCAAVIKGWGQGTQVTVSS | high polyreactivity
39 | QVQLVESGGGLVQAGGSLRLSCAASGITFRYYAMGWYRQAPGKERELVAGISGRGGSTYYADSVKGRFTISRDNAKNTVYLQLNSLKPEDTAVYYCAKDRLWYRGYRWGYYYWGQGTQVTVSS | high polyreactivity
40 | QVQLVESGGGLVQAGGSLRLSCDASGSIFTPYAMGWYRQAPGKERELVAAINWNGGRTYYADSVKGRFTISRDNAKNRVYLQMNCLKPEDTAVYYCFLYYWANYPYNYWGQGTQVNVSS | low polyreactivity
41 | QVQLVESGGGLVQAGGSLRLSCAASGRTFAYTDMGWYRQAPGNERELVAAISWSDGTTYYADSVKGRFTISRDNAKNTVYLQMNSLKPEDTAVYYCAAESYPSEVASYVSEYDYWGQGTQVTVSA | low polyreactivity
42 | QVQLVESGGGLVQAGGSLRLSCAASGSIFYVYAMGWYRQAPGKERELVAAISFSGDTTYYADSVKGRFTISRDNAKNTVYLQMNSLKQEDTAVYYCAAEYYYTWVYQYWEMDYWGQGTQVTVSS | low polyreactivity
43 | QVQLVESGGGVVQAGGSLRLSCAASGSFFYVYAMGWYRQAPGKERELVAAITATYYADSVKGRFTISRDNAKNTVYLQMNSLKPEDTAVYYCAAAPWTYWEDYDFWGQGTQVTVSS | low polyreactivity
